Paper PMC10853778 (Nucleic Acids Research, 2022)

Experiments:
[1] = molecular target: HA-tagged human RTEL1 HHD1+2 deletion construct (human) (UniProt Q9NZ71); assay: co-IP; whole-cell extracts of HEK293T cells overexpressing HA-tagged RTEL1 constructs; IP overnight at 4°C (anti-HA), protein G agarose, immunoblot for RPA; with or without 100 units Benzonase
[2] = molecular target: T1, RPA 32C winged-helix domain (residues 172-270 of RPA32) (human, UniProt P15927 172-270); assay: NMR titration; 15N-labelled partner titrated with unlabelled partner; 1H-15N HSQC, 25°C, 20 mM Tris-HCl pH 7.4, 50 mM NaCl, 2 mM DTT, 0.02% NaN3; Kd and Koff from TITAN 2D lineshape analysis, two-state model; conditions: both partners purified
T1 construct: RPA32 (RPA2), human, residues 172-270 (winged-helix 32C domain); pET-15b; uniformly 15N-labelled where it was the observed partner; source: E. coli BL21(DE3) pLysS, purified (Ni-NTA, Q column, SEC); not shown: His6, N-terminal, kept
T1 sequence (P15927 172-270): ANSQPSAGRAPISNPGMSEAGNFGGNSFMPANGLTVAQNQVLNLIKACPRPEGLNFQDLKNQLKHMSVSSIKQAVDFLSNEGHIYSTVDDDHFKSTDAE

RTEL1 HHD2 [3] = molecular target: T2, RTEL1 HHD2 (Homo sapiens, UniProt Q9NZ71-6 1056-1140); assay: ITC; pH 6.5; NMR: 20 mM Tris-HCl pH 7.4, 50 mM NaCl, 2 mM DTT, 0.02% NaN3, 10% D2O, 25 C (one ssDNA-22 titration at pH 6.5); ITC: 10 mM potassium phosphate pH 6.5, 50 mM KCl, 0.02% NaN3, 25 C; conditions: protein: recombinant, tags: N-terminal 6xHis
T2 sequence: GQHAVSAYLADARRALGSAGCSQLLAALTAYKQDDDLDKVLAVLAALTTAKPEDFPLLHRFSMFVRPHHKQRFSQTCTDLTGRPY

RTEL1 HHD1 = molecular target: T3, RTEL1 HHD1 (Homo sapiens, UniProt Q9NZ71-6 886-978); assay: NMR titration; NMR: 20 mM Tris-HCl pH 7.4, 50 mM NaCl, 2 mM DTT, 0.02% NaN3, 10% D2O, 25 C (one ssDNA-22 titration at pH 6.5); ITC: 10 mM potassium phosphate pH 6.5, 50 mM KCl, 0.02% NaN3, 25 C; conditions: protein: recombinant; tags: N-terminal 6xHis; single strand
T3 sequence: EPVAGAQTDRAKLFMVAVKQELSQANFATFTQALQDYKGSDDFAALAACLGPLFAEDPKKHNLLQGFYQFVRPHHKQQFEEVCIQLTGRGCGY

RTEL1 HHD2 [4] = molecular target: T2, RTEL1 HHD2; assay: NMR titration (TITAN); pH 6.5; NMR: 20 mM Tris-HCl pH 7.4, 50 mM NaCl, 2 mM DTT, 0.02% NaN3, 10% D2O, 25 C (one ssDNA-22 titration at pH 6.5); ITC: 10 mM potassium phosphate pH 6.5, 50 mM KCl, 0.02% NaN3, 25 C; conditions: protein: recombinant; tags: N-terminal 6xHis; single strand
RTEL1 HHD2 [5] = molecular target: T2, RTEL1 HHD2; assay: NMR titration (TITAN); pH 7.4; NMR: 20 mM Tris-HCl pH 7.4, 50 mM NaCl, 2 mM DTT, 0.02% NaN3, 10% D2O, 25 C (one ssDNA-22 titration at pH 6.5); ITC: 10 mM potassium phosphate pH 6.5, 50 mM KCl, 0.02% NaN3, 25 C; conditions: protein: recombinant, tags: N-terminal 6xHis
RTEL1 HHD2 [6] = molecular target: T2, RTEL1 HHD2; assay: NMR titration; pH 7.4; NMR: 20 mM Tris-HCl pH 7.4, 50 mM NaCl, 2 mM DTT, 0.02% NaN3, 10% D2O, 25 C (one ssDNA-22 titration at pH 6.5); ITC: 10 mM potassium phosphate pH 6.5, 50 mM KCl, 0.02% NaN3, 25 C; conditions: protein: recombinant; tags: N-terminal 6xHis; single strand

With “endogenous replication protein A (RPA) of HEK293T cells (from UniProt P27694 1-616; P15927 1-270; P35244 1-121) (complex)” as the molecule, how does the reduction of co-immunoprecipitated RPA against full-length HA-RTEL1 [1] read?
The reduction of co-immunoprecipitated RPA against full-length HA-RTEL1 was 80%.

B1: RTEL1 harmonin homology domain 2 (residues 1056-1140) (domain or fragment, human, UniProt Q9NZ71-6 1056-1140, looked up)
chain: GQHAVSAYLADARRALGSAGCSQLLAALTAYKQDDDLDKVLAVLAALTTAKPEDFPLLHRFSMFVRPHHKQRFSQTCTDLTGRPY
notes: RTEL1, human, residues 1056-1140 (HHD2) of Uniprot Q9NZ71-6; uniformly 15N-labelled where it was the observed partner; also called HHD2; RTEL1 HHD2; source: E. coli Rosetta (DE3), purified (Ni-NTA, heparin, SEC); not shown: His6, N-terminal, kept
B1 was tested. Which Kd [2] did it give?
Its Kd is 360000 nM.

What about the koff [2] of the same molecule?
The koff was 8460 s⁻¹.

For AGGATTAGGATTAGGATTAGGA (ssDNA) [ssDNA-22], which Kd (RTEL1 HHD2 [3]; single strand) is on record?
The Kd was 940 ± 130 nM.

Does AGGATTAGGATTAGGATTAGGA (ssDNA) [ssDNA-22] bind (RTEL1 HHD1)?
Result: no binding

And the Kd (RTEL1 HHD2 [4])?
The Kd was 3030 ± 640 nM.

And the Kd (RTEL1 HHD2 [5]; single strand)?
The Kd was 14600 ± 1210 nM.

B2: dsDNA-22 (dsDNA)
DNA 1: AGGATTAGGATTAGGATTAGGA
DNA 2: TCCTAATCCTAATCCTAATCCT
With B2 as the molecule, how does the Kd (RTEL1 HHD2 [5]; blunt) read?
The Kd was 19700 ± 4670 nM.

Does TTAGGA (ssDNA) [ssDNA-6] bind (RTEL1 HHD2 [6])?
Result: no binding

With TTAGGATTAGGA (ssDNA) [ssDNA-12] as the molecule, how does the Kd (RTEL1 HHD2 [3]; single strand) read?
Its Kd is 1510 ± 140 nM.

TTAGGCAGAGAGAGAGAGTTAGGC (ssDNA) [ssDNA-24] was tested. Which Kd (RTEL1 HHD2 [3]; single strand) did it give?
Its Kd is 1320 ± 150 nM.

B3: dsDNA-24 (dsDNA)
DNA 1: TTAGGCAGAGAGAGAGAGTTAGGC
DNA 2: GCCTAACTCTCTCTCTCTGCCTAA
How did the Kd (RTEL1 HHD2 [3]; blunt) turn out when B3 was run?
Its Kd is 1950 ± 310 nM.

B4: 5'ss_dsDNA-24 (mixed)
DNA 1: TTAGGCAGAGAGAGAGAGTTAGGC
DNA 2: GCCTAACTCTCTCTCTCT
B4 was tested. Which Kd (RTEL1 HHD2 [3]; 5' overhang 6 nt (strand 1)) did it give?
Its Kd is 2580 ± 270 nM.

B5: 3'ss_dsDNA-24 (mixed)
DNA 1: TTAGGCAGAGAGAGAGAGTTAGGC
DNA 2: CTCTCTCTCTCTGCCTAA
For B5, which Kd (RTEL1 HHD2 [3]; 3' overhang 6 nt (strand 1)) is on record?
Its Kd is 1220 ± 90 nM.
